In the experiment the target is T1, C-TRAF2 (residues 262 to 501 of human TRAF2) (Homo sapiens, UniProt Q12933).
T1 construct: C-TRAF2 (residues 262-501) was purified and coupled to a sensor chip CM5; initiator Met added before residue 262 (N); 6xHis (C); made in house; host or cells: baculovirus in 'Tini' cells (insect cells), vector pAcSG2
T1 sequence (Q12933 262-501): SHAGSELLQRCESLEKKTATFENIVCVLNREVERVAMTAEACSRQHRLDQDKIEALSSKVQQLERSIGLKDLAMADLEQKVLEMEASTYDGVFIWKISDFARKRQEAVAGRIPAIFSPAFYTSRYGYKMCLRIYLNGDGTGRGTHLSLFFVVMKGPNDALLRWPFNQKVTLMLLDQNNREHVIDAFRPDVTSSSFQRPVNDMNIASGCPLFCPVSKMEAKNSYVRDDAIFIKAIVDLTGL
Nature of the experiment: BIAcore surface plasmon resonance binding to immobilised C-TRAF2. Particulars: C-TRAF2 coupled to CM5 chip, read-out: Kd of the interaction between N-TRADD and C-TRAF2. How it is done:
C-TRAF2 and N-TRADD binding studies: The affinity of wild-type N-TRADD and C-TRAF2 was measured by surface plasma resonance using a BIAcore 2000 system (Pharmacia Biosensor AB). C-TRAF2 (residues 262-501) was purified and coupled to a sensor chip CM5 by amine coupling at pH=5.0 to get about 800, 1500 and 5500 response units on three different flow cells. A constant flow (20 μL/min) of purified N-TRADD protein in 10 mM Hepes, pH=7.4, 150 mM NaCl, 3.4 mM EDTA and 0.05% P20 surfactant at 8 different concentrations from 650 μM to 84 μM was applied over the protein coupled chip for 2 min to analyze the association. Binding constants were obtained from the BIAevaluation software.
The ^1H-^15N HSQC of N-TRADD was used as a tool to map the binding interface with C-TRAF2, since the chemical shifts of contact residues will be perturbed upon complex formation. […] The C-TRAF2 (residues 262-501) used in the instant HSQC titration experiment (at 120 μM) is also a trimer, as determined by size exclusion chromatography. […] N-TRADD Mutagenesis and interactions between C-TRAF2 and N-TRADD: In order to further characterize the amino acids in N-TRADD that are involved in C-TRAF2 recognition, site directed mutants of N-TRADD were prepared and evaluated for their ability to bind C-TRAF2. […]
The affinity of N-TRADD mutants to C-TRAF2 was measured by BIAcore. […]
In general terms: Surface plasmon resonance follows binding to a sensor surface in real time, without labels.

For orientation: Kd means the concentration at which binding is half-saturated.

B1: N-TRADD: N-terminal domain (amino acid residues 1-169, SEQ ID NO:1) of human TNFR-1 associated death domain protein (protein)
chain: MAAGQNGHEWVGSAYLFVESSLDKVVLSDAYAHPQQKVAVYRALQAALAESGGSPDVLQMLKIHRSDPQLIVQLRFCGRQPCGRFLRAYREGALRAALQRSLAAALAQHSVPLQLELRAGAERLDALLADEERCLSCILAQQPDRLRDEELAELEDALRNLKCGSGAR
For the molecule B1, the dissociation constant (Kd) was determined as 6 µM.

(Values after patent US7460961B2, “N-TRADD active site and uses thereof” (Genetics Institute, LLC, priority 2000, dated 2008).)
